{"source": "paper PMC2995063", "assay_in_all_cases": "protection of ribosome-bound eEF2 from [14C]ADP-ribosylation by diphtheria toxin", "key": {"[1]": {"biological_target": "Salt washed yeast 80S ribosomes with ribosomal protein L3 K236A (yeast (S. cerevisiae)) (UniProt P14126)"}, "[2]": {"biological_target": "Salt washed yeast 80S ribosomes with ribosomal protein L3 K236A/K237A (yeast (S. cerevisiae)) (UniProt P14126)"}, "[3]": {"biological_target": "Salt washed yeast 80S ribosomes with ribosomal protein L3 K236A/R247A (yeast (S. cerevisiae)) (UniProt P14126)"}, "[4]": {"biological_target": "Salt washed yeast 80S ribosomes with ribosomal protein L3 K237A (yeast (S. cerevisiae)) (UniProt P14126)"}, "[5]": {"biological_target": "Salt washed yeast 80S ribosomes with ribosomal protein L3 K241A/R244A (yeast (S. cerevisiae)) (UniProt P14126)"}, "[6]": {"biological_target": "Salt washed yeast 80S ribosomes with ribosomal protein L3 R232A (yeast (S. cerevisiae)) (UniProt P14126)"}, "[7]": {"biological_target": "Salt washed yeast 80S ribosomes with ribosomal protein L3 R247A (yeast (S. cerevisiae)) (UniProt P14126)"}, "[8]": {"biological_target": "Salt washed yeast 80S ribosomes with wild-type ribosomal protein L3 (yeast (S. cerevisiae)) (UniProt P14126)"}}}
{"substance": "Eukaryotic elongation factor 2 (eEF2), 6xHis-tagged (from UniProt P32324 1-842) (natural protein)", "values": [{"measurement": "Kd", "setting": "[1]", "result": 312, "unit": "nM"}, {"measurement": "Kd", "setting": "[2]", "result": 84, "unit": "nM"}, {"measurement": "Kd", "setting": "[3]", "result": 110, "unit": "nM"}, {"measurement": "Kd", "setting": "[4]", "result": 342, "unit": "nM"}, {"measurement": "Kd", "setting": "[5]", "result": 229, "unit": "nM"}, {"measurement": "Kd", "setting": "[6]", "result": 341, "unit": "nM"}, {"measurement": "Kd", "setting": "[7]", "result": 46.6, "unit": "nM"}, {"measurement": "Kd", "setting": "[8]", "result": 383, "unit": "nM"}]}
